Measured values published in patent publication US20230357348A1 (AstraZeneca / MedImmune, published 2023).
Starred links: 1 amine or outer side, 2 acyl side, 3 side chain; linkers in the order of their positions; H or OH if unused. Non-standard residues stand in square brackets, D forms with d. Groups on a side chain read outwards from the residue. No end group written: not given here. *: point of attachment. C20 diacid = O=C(O)CCCCCCCCCCCCCCCCCCC(=O)*; C18 diacid = O=C(O)CCCCCCCCCCCCCCCCC(=O)*; γGlu = O=C(O)[C@H](CCC(=O)[*:2])N[*:1]; αMeF = C[C@](N)(Cc1ccccc1)C(=O)O; AEEA = NCCOCCOCC(=O)O; Aib = CC(C)(N)C(=O)O

What was measured:
[1] = biological target: human GLP-1 receptor (hGLP-1R) (human, UniProt P43220 24-463); assay: cell-based or functional assay
[2] = biological target: human glucagon receptor (hGCGR) (human, UniProt P47871 26-477); assay: cell-based or functional assay
Chain of human glucagon receptor (hGCGR) (P47871 26-477): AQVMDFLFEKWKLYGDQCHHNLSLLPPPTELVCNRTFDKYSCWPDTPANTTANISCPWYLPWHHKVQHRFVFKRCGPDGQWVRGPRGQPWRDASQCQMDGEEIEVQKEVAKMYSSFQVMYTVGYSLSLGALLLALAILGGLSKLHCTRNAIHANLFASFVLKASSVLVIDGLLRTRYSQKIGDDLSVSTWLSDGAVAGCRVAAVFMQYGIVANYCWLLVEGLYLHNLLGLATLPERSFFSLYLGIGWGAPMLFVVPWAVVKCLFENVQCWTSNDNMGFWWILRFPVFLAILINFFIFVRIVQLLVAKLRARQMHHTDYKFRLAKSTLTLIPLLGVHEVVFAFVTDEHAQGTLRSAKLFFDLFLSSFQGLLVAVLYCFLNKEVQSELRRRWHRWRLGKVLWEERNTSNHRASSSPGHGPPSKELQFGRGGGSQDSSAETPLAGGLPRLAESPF

B1: Peptide 481 (peptide)
peptide: H[Aib]QGTFTSDVSK[αMeF]LDTK([AEEA-AEEA-γGlu-C20 diacid])RARDFVQWLLE[Aib]K-NH2
modifications: N-terminus assumed
SMILES: CC(C)C[C@H](NC(=O)[C@H](Cc1c[nH]c2ccccc12)NC(=O)[C@H](CCC(N)=O)NC(=O)[C@@H](NC(=O)[C@H](Cc1ccccc1)NC(=O)[C@H](CC(=O)O)NC(=O)[C@H](CCCNC(=N)N)NC(=O)[C@H](C)NC(=O)[C@H](CCCNC(=N)N)NC(=O)[C@H](CCCCNC(=O)COCCOCCNC(=O)COCCOCCNC(=O)CC[C@H](NC(=O)CCCCCCCCCCCCCCCCCCC(=O)O)C(=O)O)NC(=O)[C@@H](NC(=O)[C@H](CC(=O)O)NC(=O)[C@H](CC(C)C)NC(=O)[C@](C)(Cc1ccccc1)NC(=O)[C@H](CCCCN)NC(=O)[C@H](CO)NC(=O)[C@@H](NC(=O)[C@H](CC(=O)O)NC(=O)[C@H](CO)NC(=O)[C@@H](NC(=O)[C@H](Cc1ccccc1)NC(=O)[C@@H](NC(=O)CNC(=O)[C@H](CCC(N)=O)NC(=O)C(C)(C)NC(=O)[C@@H](N)Cc1c[nH]cn1)[C@@H](C)O)[C@@H](C)O)C(C)C)[C@@H](C)O)C(C)C)C(=O)N[C@@H](CC(C)C)C(=O)N[C@@H](CCC(=O)O)C(=O)NC(C)(C)C(=O)N[C@@H](CCCCN)C(N)=O
- hGLP-1R EC50 (pM) [1]: 52.2 pM
- hGluc-R EC50 (pM) [2]: 350 pM

B2: Peptide 482 (peptide)
peptide: H[Aib]QGTFTSDVSK[αMeF]LESK([AEEA-AEEA-γGlu-C18 diacid])RAQDFVQWLL[Aib]E-OH
modifications: N-terminus assumed
SMILES: CC(C)C[C@H](NC(=O)[C@H](Cc1c[nH]c2ccccc12)NC(=O)[C@H](CCC(N)=O)NC(=O)[C@@H](NC(=O)[C@H](Cc1ccccc1)NC(=O)[C@H](CC(=O)O)NC(=O)[C@H](CCC(N)=O)NC(=O)[C@H](C)NC(=O)[C@H](CCCNC(=N)N)NC(=O)[C@H](CCCCNC(=O)COCCOCCNC(=O)COCCOCCNC(=O)CC[C@H](NC(=O)CCCCCCCCCCCCCCCCC(=O)O)C(=O)O)NC(=O)[C@H](CO)NC(=O)[C@H](CCC(=O)O)NC(=O)[C@H](CC(C)C)NC(=O)[C@](C)(Cc1ccccc1)NC(=O)[C@H](CCCCN)NC(=O)[C@H](CO)NC(=O)[C@@H](NC(=O)[C@H](CC(=O)O)NC(=O)[C@H](CO)NC(=O)[C@@H](NC(=O)[C@H](Cc1ccccc1)NC(=O)[C@@H](NC(=O)CNC(=O)[C@H](CCC(N)=O)NC(=O)C(C)(C)NC(=O)[C@@H](N)Cc1c[nH]cn1)[C@@H](C)O)[C@@H](C)O)C(C)C)C(C)C)C(=O)N[C@@H](CC(C)C)C(=O)NC(C)(C)C(=O)N[C@@H](CCC(=O)O)C(=O)O
- hGLP-1R EC50 (pM) [1]: 190 pM
- hGluc-R EC50 (pM) [2]: 691 pM

B3: Peptide 477 (peptide)
peptide: H[Aib]QGTFTSDVSK[αMeF]LDTK([AEEA-AEEA-γGlu-C20 diacid])RAQDFVRWLLA[Aib]G-NH2
modifications: N-terminus assumed
SMILES: CC(C)C[C@H](NC(=O)[C@H](CC(C)C)NC(=O)[C@H](Cc1c[nH]c2ccccc12)NC(=O)[C@H](CCCNC(=N)N)NC(=O)[C@@H](NC(=O)[C@H](Cc1ccccc1)NC(=O)[C@H](CC(=O)O)NC(=O)[C@H](CCC(N)=O)NC(=O)[C@H](C)NC(=O)[C@H](CCCNC(=N)N)NC(=O)[C@H](CCCCNC(=O)COCCOCCNC(=O)COCCOCCNC(=O)CC[C@H](NC(=O)CCCCCCCCCCCCCCCCCCC(=O)O)C(=O)O)NC(=O)[C@@H](NC(=O)[C@H](CC(=O)O)NC(=O)[C@H](CC(C)C)NC(=O)[C@](C)(Cc1ccccc1)NC(=O)[C@H](CCCCN)NC(=O)[C@H](CO)NC(=O)[C@@H](NC(=O)[C@H](CC(=O)O)NC(=O)[C@H](CO)NC(=O)[C@@H](NC(=O)[C@H](Cc1ccccc1)NC(=O)[C@@H](NC(=O)CNC(=O)[C@H](CCC(N)=O)NC(=O)C(C)(C)NC(=O)[C@@H](N)Cc1c[nH]cn1)[C@@H](C)O)[C@@H](C)O)C(C)C)[C@@H](C)O)C(C)C)C(=O)N[C@@H](C)C(=O)NC(C)(C)C(=O)NCC(N)=O
- hGLP-1R EC50 (pM) [1]: 54.1 pM
- hGluc-R EC50 (pM) [2]: 117 pM

B4: Peptide 478 (peptide)
peptide: H[Aib]QGTFTSDVSK[αMeF]LDTK([AEEA-AEEA-γGlu-C18 diacid])RAQDFVRWLLE[Aib]K-NH2
modifications: N-terminus assumed
SMILES: CC(C)C[C@H](NC(=O)[C@H](Cc1c[nH]c2ccccc12)NC(=O)[C@H](CCCNC(=N)N)NC(=O)[C@@H](NC(=O)[C@H](Cc1ccccc1)NC(=O)[C@H](CC(=O)O)NC(=O)[C@H](CCC(N)=O)NC(=O)[C@H](C)NC(=O)[C@H](CCCNC(=N)N)NC(=O)[C@H](CCCCNC(=O)COCCOCCNC(=O)COCCOCCNC(=O)CC[C@H](NC(=O)CCCCCCCCCCCCCCCCC(=O)O)C(=O)O)NC(=O)[C@@H](NC(=O)[C@H](CC(=O)O)NC(=O)[C@H](CC(C)C)NC(=O)[C@](C)(Cc1ccccc1)NC(=O)[C@H](CCCCN)NC(=O)[C@H](CO)NC(=O)[C@@H](NC(=O)[C@H](CC(=O)O)NC(=O)[C@H](CO)NC(=O)[C@@H](NC(=O)[C@H](Cc1ccccc1)NC(=O)[C@@H](NC(=O)CNC(=O)[C@H](CCC(N)=O)NC(=O)C(C)(C)NC(=O)[C@@H](N)Cc1c[nH]cn1)[C@@H](C)O)[C@@H](C)O)C(C)C)[C@@H](C)O)C(C)C)C(=O)N[C@@H](CC(C)C)C(=O)N[C@@H](CCC(=O)O)C(=O)NC(C)(C)C(=O)N[C@@H](CCCCN)C(N)=O
- hGLP-1R EC50 (pM) [1]: 9.18 pM
- hGluc-R EC50 (pM) [2]: 190 pM

B5: Peptide 480 (peptide)
peptide: H[Aib]QGTFTSDVSK[αMeF]LDTK([AEEA-AEEA-γGlu-C18 diacid])RARDFVQWLLE[Aib]K-NH2
modifications: N-terminus assumed
SMILES: CC(C)C[C@H](NC(=O)[C@H](Cc1c[nH]c2ccccc12)NC(=O)[C@H](CCC(N)=O)NC(=O)[C@@H](NC(=O)[C@H](Cc1ccccc1)NC(=O)[C@H](CC(=O)O)NC(=O)[C@H](CCCNC(=N)N)NC(=O)[C@H](C)NC(=O)[C@H](CCCNC(=N)N)NC(=O)[C@H](CCCCNC(=O)COCCOCCNC(=O)COCCOCCNC(=O)CC[C@H](NC(=O)CCCCCCCCCCCCCCCCC(=O)O)C(=O)O)NC(=O)[C@@H](NC(=O)[C@H](CC(=O)O)NC(=O)[C@H](CC(C)C)NC(=O)[C@](C)(Cc1ccccc1)NC(=O)[C@H](CCCCN)NC(=O)[C@H](CO)NC(=O)[C@@H](NC(=O)[C@H](CC(=O)O)NC(=O)[C@H](CO)NC(=O)[C@@H](NC(=O)[C@H](Cc1ccccc1)NC(=O)[C@@H](NC(=O)CNC(=O)[C@H](CCC(N)=O)NC(=O)C(C)(C)NC(=O)[C@@H](N)Cc1c[nH]cn1)[C@@H](C)O)[C@@H](C)O)C(C)C)[C@@H](C)O)C(C)C)C(=O)N[C@@H](CC(C)C)C(=O)N[C@@H](CCC(=O)O)C(=O)NC(C)(C)C(=O)N[C@@H](CCCCN)C(N)=O
- hGLP-1R EC50 (pM) [1]: 12.6 pM
- hGluc-R EC50 (pM) [2]: 136 pM

Binder: H[Aib]QGTFTSDVSK[αMeF]LDTK([AEEA-AEEA-γGlu-C18 diacid])RAQDFVQWLL[Aib]E-OH [Peptide 483]
- hGLP-1R EC50 (pM) [1]: 178 pM
- hGluc-R EC50 (pM) [2]: 169 pM

B6: Peptide 475 (peptide)
peptide: H[Aib]QGTFTSDVSK[αMeF]LDTK([AEEA-AEEA-γGlu-C20 diacid])RARDFVQWLLA[Aib]G-NH2
modifications: N-terminus assumed
SMILES: CC(C)C[C@H](NC(=O)[C@H](CC(C)C)NC(=O)[C@H](Cc1c[nH]c2ccccc12)NC(=O)[C@H](CCC(N)=O)NC(=O)[C@@H](NC(=O)[C@H](Cc1ccccc1)NC(=O)[C@H](CC(=O)O)NC(=O)[C@H](CCCNC(=N)N)NC(=O)[C@H](C)NC(=O)[C@H](CCCNC(=N)N)NC(=O)[C@H](CCCCNC(=O)COCCOCCNC(=O)COCCOCCNC(=O)CC[C@H](NC(=O)CCCCCCCCCCCCCCCCCCC(=O)O)C(=O)O)NC(=O)[C@@H](NC(=O)[C@H](CC(=O)O)NC(=O)[C@H](CC(C)C)NC(=O)[C@](C)(Cc1ccccc1)NC(=O)[C@H](CCCCN)NC(=O)[C@H](CO)NC(=O)[C@@H](NC(=O)[C@H](CC(=O)O)NC(=O)[C@H](CO)NC(=O)[C@@H](NC(=O)[C@H](Cc1ccccc1)NC(=O)[C@@H](NC(=O)CNC(=O)[C@H](CCC(N)=O)NC(=O)C(C)(C)NC(=O)[C@@H](N)Cc1c[nH]cn1)[C@@H](C)O)[C@@H](C)O)C(C)C)[C@@H](C)O)C(C)C)C(=O)N[C@@H](C)C(=O)NC(C)(C)C(=O)NCC(N)=O
- hGLP-1R EC50 (pM) [1]: 6.75 pM
- hGluc-R EC50 (pM) [2]: 61.5 pM

B7: Peptide 479 (peptide)
peptide: H[Aib]QGTFTSDVSK[αMeF]LDTK([AEEA-AEEA-γGlu-C20 diacid])RAQDFVRWLLE[Aib]K-NH2
modifications: N-terminus assumed
SMILES: CC(C)C[C@H](NC(=O)[C@H](Cc1c[nH]c2ccccc12)NC(=O)[C@H](CCCNC(=N)N)NC(=O)[C@@H](NC(=O)[C@H](Cc1ccccc1)NC(=O)[C@H](CC(=O)O)NC(=O)[C@H](CCC(N)=O)NC(=O)[C@H](C)NC(=O)[C@H](CCCNC(=N)N)NC(=O)[C@H](CCCCNC(=O)COCCOCCNC(=O)COCCOCCNC(=O)CC[C@H](NC(=O)CCCCCCCCCCCCCCCCCCC(=O)O)C(=O)O)NC(=O)[C@@H](NC(=O)[C@H](CC(=O)O)NC(=O)[C@H](CC(C)C)NC(=O)[C@](C)(Cc1ccccc1)NC(=O)[C@H](CCCCN)NC(=O)[C@H](CO)NC(=O)[C@@H](NC(=O)[C@H](CC(=O)O)NC(=O)[C@H](CO)NC(=O)[C@@H](NC(=O)[C@H](Cc1ccccc1)NC(=O)[C@@H](NC(=O)CNC(=O)[C@H](CCC(N)=O)NC(=O)C(C)(C)NC(=O)[C@@H](N)Cc1c[nH]cn1)[C@@H](C)O)[C@@H](C)O)C(C)C)[C@@H](C)O)C(C)C)C(=O)N[C@@H](CC(C)C)C(=O)N[C@@H](CCC(=O)O)C(=O)NC(C)(C)C(=O)N[C@@H](CCCCN)C(N)=O
- hGLP-1R EC50 (pM) [1]: 34.2 pM
- hGluc-R EC50 (pM) [2]: 207 pM
